These results are taken from patent publication US20250034212A1, “PEPTIDE” (PEPTIDREAM INC., priority 2021, published 2025).

Experiment [1] deals with T1, recombinant human TGF-β1 (Homo sapiens, UniProt P01137).
T1 construct: purchased R&D systems
Briefly: SPR intermolecular interaction test, TGF-β1 immobilized on CM3 sensor chip (Biacore T200). The format is binding. Conditions: Single Cycle Kinetics, human TGF-β1. Here is the method: In this Example, (1) the activity of binding to TGF-β for various peptides consisting of the amino acid sequences set forth in SEQ ID NOs: 2-33 synthesized in Examples 1 to 5 and 7 was evaluated. (2) The activity and selectivity of binding of the peptide consisting of the amino acid sequence set forth in SEQ ID NO: 13 synthesized in Example 2 against two isoforms of TGF-β (TGF-β1 and β2) were checked. For this purpose, the intermolecular interaction of each peptide against TGF-β was tested by surface plasmon resonance (SPR) in the method described below. Specific test methods are described below.
A CM3 sensor chip (Global Life Science Technologies Japan Co., Ltd.) was inserted into a BiacoreT200 (Global Life Science Technologies Japan Co., Ltd.). Three priming runs were performed using running buffer: HBS-EP+ (Global Life Science Technologies Japan Co., Ltd.). The system was then equilibrated at a flow rate of 30 μL/min.
(§1) Subsequently, 50 μL of 60 mM EDC solution (Global Life Science Technologies Japan Co., Ltd.) and 50 μL of 650 mM NHS solution (Global Life Science Technologies Japan Co., Ltd.) were mixed. Next, the reaction was carried out at a flow rate of 10 μL/min for 420 seconds. Then, 150 μL of 0.2 μM TGF-β solution diluted in 10 mM acetic acid solution (pH 5.0) was prepared and reacted at a flow rate of 10 μL/min for 420 seconds to immobilize TGF-β on the CM3 sensor chip. TGF-β was human-derived TGF-β1 or β2 (recombinant human TGF-β1, 2) and was obtained from R&D systems. After immobilization, capping was performed by reacting with 1.0 M ethanolamine aqueous solution (Global Life Science Technologies Japan Co., Ltd.) at a flow rate of […] for 420 seconds.
(§2) A liquid prepared by dissolving each peptide at 10 mM in DMSO solution was diluted with running buffer to prepare a peptide-dissolved solution at a final concentration of 10 μM. Subsequently, 50 nM, 25 nM, 12.5 nM, 5 nM, and 2.5 nM peptide solutions were prepared. Using the above samples, the kinetics of each peptide against TGF-β was obtained by SPR measurement.
(§3) The kinetics evaluation model was Single Cycle Kinetics, and curve fitting was performed using Biacore T200 Evaluation Software Version 3.0 (Global Life Science Technologies Japan Co., Ltd.). The binding of various peptides to TGF-β was evaluated by performing least-squares curve fitting on the obtained sensorgram to calculate the KD value.

For experiment [2], the target named is T2, recombinant human TGF-β1 (R&D systems) (human, UniProt P01137 279-390).
T2 construct: Bought protein; immobilised on a CM3 chip (SPR) or on Dynabeads (ELISA), added to cells in the SBE reporter assay; also called TGF-β1 beads
Briefly: SPR, TGF-β1 immobilised, single cycle kinetics. How it is done: as §1, §2, §3
Background: SPR reads the build-up and loss of mass on a sensor chip optically.

The target of experiment [3] is T2, recombinant human TGF-β1 (R&D systems). Briefly: cell-based or functional assay.
Experiment [4] shares this target. The experiment can be described thus: cell-based or functional assay. This is another data set of the same source.

Starred links: 1 amine or outer side, 2 acyl side, 3 side chain; linkers in the order of their positions; H or OH if unused. Positions of bridges follow the written chain, without caps; N, C: chain ends. Non-standard residues stand in square brackets, D forms with d. Residues, ends and D or L forms follow the SMILES beside them. Groups on a side chain read outwards from the residue. *: point of attachment. KCOmeglumine = N6-(methyl-((2S,3R,4R,5R)-2,3,4,5,6-pentahydroxyhexyl)carbamoyl)-L-lysine, CN(C[C@H](O)[C@@H](O)[C@H](O)[C@H](O)CO)C(=O)NCCCC[C@H](N[*:1])C(=O)[*:2]; KCOpipzaa = N6-(4-(carboxymethyl)piperazine-1-carbonyl)-L-lysine, O=C(NCCCC[C@H](N[*:1])C(=O)[*:2])N1CCN(CC(=O)[*:3])CC1; OCOmPEG10000 = methoxypolyethyleneglycol (10000) carbonate on Lys NZ; Trp(7-aza) = N[C@@H](Cc1c[nH]c2ncccc12)C(=O)O; Piperazinyl(4-CH2COOH) = O=C(O)CN1CCN(*)CC1; 1Nal = N[C@@H](Cc1cccc2ccccc12)C(=O)O; Gly(NCH2CH2Ph) = O=C(O)CNCCc1ccccc1; 4Pal = N[C@@H](Cc1ccncc1)C(=O)O; CO = O=C([*:1])[*:2]

T2 sequence (P01137 279-390 limits assumed): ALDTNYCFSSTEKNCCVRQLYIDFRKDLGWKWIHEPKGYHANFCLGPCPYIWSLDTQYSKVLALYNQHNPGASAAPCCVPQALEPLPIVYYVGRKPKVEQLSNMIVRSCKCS
T1 sequence (P01137 279-390 limits assumed): as above

One may read the Kd as the constant that tells how readily two partners part at equilibrium. As for `CC(C)[C@@H]1NC(=O)CN(CCc2ccccc2)C(=O)[C@H](CC(=O)O)NC(=O)[C@H](CC(=O)O)NC(=O)[C@H](Cc2ccncc2)NC(=O)[C@H](C(C)C)NC(=O)[C@H](CC(N)=O)NC(=O)[C@H](C(C)C)NC(=O)[C@H](C(C)C)NC(=O)[C@H](Cc2cccc3ccccc23)NC(=O)[C@H](Cc2ccccc2)NC(=O)CSC[C@@H](C(N)=O)NC(=O)[C@H](CCCCNC(=O)N2CCN(CC(=O)O)CC2)NC(=O)[C@H](Cc2c[nH]cn2)NC(=O)[C@H](Cc2ccc(O)cc2)NC(=O)[C@H](Cc2cccc3ccccc23)NC1=O` [TGFb1_013] ({CH2CO}-F[1Nal]VVNV[4Pal]DD[Gly(NCH2CH2Ph)]V[1Nal]YHK([CO-Piperazinyl(4-CH2COOH)])C-NH2; thioether N-16), in experiment [1], the Kd came out at 0.82 nM.

B1: TGFb1_027 (peptide)
peptide: {CH2CO}-F[1Nal]VVNV[4Pal]DD[Gly(NCH2CH2Ph)]V[1Nal]YHECG-NH2
modifications: thioether N-16
SMILES: CC(C)[C@@H]1NC(=O)CN(CCc2ccccc2)C(=O)[C@H](CC(=O)O)NC(=O)[C@H](CC(=O)O)NC(=O)[C@H](Cc2ccncc2)NC(=O)[C@H](C(C)C)NC(=O)[C@H](CC(N)=O)NC(=O)[C@H](C(C)C)NC(=O)[C@H](C(C)C)NC(=O)[C@H](Cc2cccc3ccccc23)NC(=O)[C@H](Cc2ccccc2)NC(=O)CSC[C@@H](C(=O)NCC(N)=O)NC(=O)[C@H](CCC(=O)O)NC(=O)[C@H](Cc2c[nH]cn2)NC(=O)[C@H](Cc2ccc(O)cc2)NC(=O)[C@H](Cc2cccc3ccccc23)NC1=O
notes: cyclic peptide; C-terminal G is a linker
Turning to B1, the dissociation constant (Kd) in experiment [2] amounted to 1.11 nM. Further, in experiment [3], the “SBE reporter % inhibition, peptide 0.062 nM” value was found to be 2.53%; the “SBE reporter % inhibition, peptide 0.185 nM” value came to 9.14%; the “SBE reporter % inhibition, peptide 0.56 nM” value turned out to be 28.4%; the “SBE reporter % inhibition, peptide 1.7 nM” value turned out to be 59.4%. For the same molecule, in experiment [3], the “SBE reporter % inhibition, peptide 5.0 nM” value came to 84.9% and the “SBE reporter % inhibition, peptide 15.0 nM” value was 95.5%.

B2: TGFb1_021 (peptide)
peptide: {CH2CO}-F[1Nal]VVNV[4Pal]DE[Gly(NCH2CH2Ph)]V[1Nal]YH[KCOpipzaa]CG-NH2
modifications: thioether N-16
SMILES: CC(C)[C@@H]1NC(=O)CN(CCc2ccccc2)C(=O)[C@H](CCC(=O)O)NC(=O)[C@H](CC(=O)O)NC(=O)[C@H](Cc2ccncc2)NC(=O)[C@H](C(C)C)NC(=O)[C@H](CC(N)=O)NC(=O)[C@H](C(C)C)NC(=O)[C@H](C(C)C)NC(=O)[C@H](Cc2cccc3ccccc23)NC(=O)[C@H](Cc2ccccc2)NC(=O)CSC[C@@H](C(=O)NCC(N)=O)NC(=O)[C@H](CCCCNC(=O)N2CCN(CC(=O)O)CC2)NC(=O)[C@H](Cc2c[nH]cn2)NC(=O)[C@H](Cc2ccc(O)cc2)NC(=O)[C@H](Cc2cccc3ccccc23)NC1=O
notes: as for B1
For B2, the dissociation constant Kd in experiment [2] was found to be 1.37 nM. Further, in experiment [3], the “SBE reporter % inhibition, peptide 0.062 nM” value is 10.2%; the “SBE reporter % inhibition, peptide 0.185 nM” value is 26.9%; the “SBE reporter % inhibition, peptide 0.56 nM” value came to 58.9%; the “SBE reporter % inhibition, peptide 1.7 nM” value stood at 87.8%. Besides, in experiment [3], the “SBE reporter % inhibition, peptide 5.0 nM” value worked out at 97.1% and the “SBE reporter % inhibition, peptide 15.0 nM” value was found to be 98.8%.

B3: TGFb1_018 (peptide)
peptide: {CH2CO}-F[Trp(7-aza)]VVNV[4Pal]D[KCOmeglumine][Gly(NCH2CH2Ph)]V[1Nal]YHVCG-NH2
modifications: thioether N-16
SMILES: CC(C)[C@@H]1NC(=O)CN(CCc2ccccc2)C(=O)[C@H](CCCCNC(=O)N(C)C[C@H](O)[C@@H](O)[C@H](O)[C@H](O)CO)NC(=O)[C@H](CC(=O)O)NC(=O)[C@H](Cc2ccncc2)NC(=O)[C@H](C(C)C)NC(=O)[C@H](CC(N)=O)NC(=O)[C@H](C(C)C)NC(=O)[C@H](C(C)C)NC(=O)[C@H](Cc2c[nH]c3ncccc23)NC(=O)[C@H](Cc2ccccc2)NC(=O)CSC[C@@H](C(=O)NCC(N)=O)NC(=O)[C@H](C(C)C)NC(=O)[C@H](Cc2c[nH]cn2)NC(=O)[C@H](Cc2ccc(O)cc2)NC(=O)[C@H](Cc2cccc3ccccc23)NC1=O
notes: as for B1
As to B3, the Kd in experiment [2] came to 1.42 nM. In addition, in experiment [4], the “SBE reporter % inhibition, peptide 0.075 nM” value was found to be 22.2%; the “SBE reporter % inhibition, peptide 0.75 nM” value is 61%; the “SBE reporter % inhibition, peptide 7.5 nM” value is 97.6%; the “SBE reporter % inhibition, peptide 75.0 nM” value came out at 99.9%.

B4: TGFb1_032 (peptide)
peptide: {CH2CO}-F[1Nal]VVNV[4Pal]DD[Gly(NCH2CH2Ph)]V[1Nal]YH[KCOpipzaa]CGK(OCOmPEG10000)-NH2
modifications: thioether N-16
notes: cyclic peptide; linker G K(OCOmPEG10000) at the C-terminus
In the case of B4, the dissociation constant Kd in experiment [2] was 3.08 nM. Moreover, in experiment [3], the “SBE reporter % inhibition, peptide 0.062 nM” value was 2.67%; the “SBE reporter % inhibition, peptide 0.185 nM” value came out at 7.18%; the “SBE reporter % inhibition, peptide 0.56 nM” value worked out at 1.11%; the “SBE reporter % inhibition, peptide 1.7 nM” value came to 4.77%. In experiment [3], the “SBE reporter % inhibition, peptide 5.0 nM” value was 54% and the “SBE reporter % inhibition, peptide 15.0 nM” value came out at 91.3%.

B5: TGFb1_028 (peptide)
peptide: {CH2CO}-F[1Nal]V[KCOmeglumine]NV[4Pal]DD[Gly(NCH2CH2Ph)]V[1Nal]YHECG-NH2
modifications: thioether N-16
SMILES: CC(C)[C@@H]1NC(=O)CN(CCc2ccccc2)C(=O)[C@H](CC(=O)O)NC(=O)[C@H](CC(=O)O)NC(=O)[C@H](Cc2ccncc2)NC(=O)[C@H](C(C)C)NC(=O)[C@H](CC(N)=O)NC(=O)[C@H](CCCCNC(=O)N(C)C[C@H](O)[C@@H](O)[C@H](O)[C@H](O)CO)NC(=O)[C@H](C(C)C)NC(=O)[C@H](Cc2cccc3ccccc23)NC(=O)[C@H](Cc2ccccc2)NC(=O)CSC[C@@H](C(=O)NCC(N)=O)NC(=O)[C@H](CCC(=O)O)NC(=O)[C@H](Cc2c[nH]cn2)NC(=O)[C@H](Cc2ccc(O)cc2)NC(=O)[C@H](Cc2cccc3ccccc23)NC1=O
notes: as for B1
B5: the Kd in experiment [2] was 1.31 nM. In addition, in experiment [3], the “SBE reporter % inhibition, peptide 0.062 nM” value stood at 0.94%; the “SBE reporter % inhibition, peptide 0.185 nM” value amounted to 6.17%; the “SBE reporter % inhibition, peptide 0.56 nM” value was determined as 20.4%; the “SBE reporter % inhibition, peptide 1.7 nM” value was 47.6%. Besides, in experiment [3], the “SBE reporter % inhibition, peptide 5.0 nM” value was found to be 73.9% and the “SBE reporter % inhibition, peptide 15.0 nM” value was 91.7%.

B6: TGFb1_029 (peptide)
peptide: {CH2CO}-F[1Nal]V[KCOmeglumine]NV[4Pal]DE[Gly(NCH2CH2Ph)]V[1Nal]YHECG-NH2
modifications: thioether N-16
SMILES: CC(C)[C@@H]1NC(=O)CN(CCc2ccccc2)C(=O)[C@H](CCC(=O)O)NC(=O)[C@H](CC(=O)O)NC(=O)[C@H](Cc2ccncc2)NC(=O)[C@H](C(C)C)NC(=O)[C@H](CC(N)=O)NC(=O)[C@H](CCCCNC(=O)N(C)C[C@H](O)[C@@H](O)[C@H](O)[C@H](O)CO)NC(=O)[C@H](C(C)C)NC(=O)[C@H](Cc2cccc3ccccc23)NC(=O)[C@H](Cc2ccccc2)NC(=O)CSC[C@@H](C(=O)NCC(N)=O)NC(=O)[C@H](CCC(=O)O)NC(=O)[C@H](Cc2c[nH]cn2)NC(=O)[C@H](Cc2ccc(O)cc2)NC(=O)[C@H](Cc2cccc3ccccc23)NC1=O
notes: as for B1
For the molecule B6, the Kd in experiment [2] was 0.94 nM. Also, in experiment [3], the “SBE reporter % inhibition, peptide 0.062 nM” value amounted to 12%; the “SBE reporter % inhibition, peptide 0.185 nM” value was found to be 16.9%; the “SBE reporter % inhibition, peptide 0.56 nM” value is 32.4%; the “SBE reporter % inhibition, peptide 1.7 nM” value stood at 63.7%. For the same molecule, in experiment [3], the “SBE reporter % inhibition, peptide 5.0 nM” value came out at 85.8% and the “SBE reporter % inhibition, peptide 15.0 nM” value worked out at 96.8%.
